# Article PMC9768791 (2022)
# T1: WDFY3p.L512H peptide on HLA-A*11:01 (human)
# T1 peptide: VMVNHLHKY
# T2: PRCCp.V145L peptide on HLA-C*07:01 (human)
# T2 peptide: KRKEPLKI
# T3: ACEp.V535G peptide on HLA-B*57:01 (human)
# T3 peptide: VSFGLQFQF
# T4: ETNK1p.Q233L peptide on HLA-C*07:01 (human)
# T4 peptide: FRLIARLL
# T5: KBTBD3p.T293A peptide on HLA-B*35:01 (human)
# T5 peptide: RPSTAEKYIF
# T6: SDK1p.S1290L peptide on HLA-A*02:01 (human)
# T6 peptide: SLTQILLTWT
# T7: RASA3p.A654V peptide on HLA-A*02:01 (human)
# T7 peptide: FQVIQPERV
# T8: MAN2A2p.R877W peptide on HLA-C*04:01 (human)
# T8 peptide: IWDYVNKELA
# Experiments:
# Assay in all cases: activation reporter or marker
# [1] = biological target: T1, WDFY3p.L512H peptide on HLA-A*11:01
# [2] = biological target: T2, PRCCp.V145L peptide on HLA-C*07:01
# [3] = biological target: T3, ACEp.V535G peptide on HLA-B*57:01
# [4] = biological target: T4, ETNK1p.Q233L peptide on HLA-C*07:01
# [5] = biological target: T5, KBTBD3p.T293A peptide on HLA-B*35:01
# [6] = biological target: T6, SDK1p.S1290L peptide on HLA-A*02:01
# [7] = biological target: T7, RASA3p.A654V peptide on HLA-A*02:01
# [8] = biological target: T8, MAN2A2p.R877W peptide on HLA-C*04:01
binder,measurement,setting,value
"TCR720 (TCR, V domains shown) Valpha: LAKTTQPISMDSYEGQEVNITCSHNNIATNDYITWYQQFPSQGPRFIIQGYKTKVTNEVASLFIPADRKSSTLSLPRVSLSDTAVYYCLVIEAGNNRKLIWGLGTSLAVNP Vbeta: not shown",binding result,[1],recognises
"TCR775 (TCR, V domains shown) Valpha: GQNIDQPTEMTATEGAIVQINCTYQTSGFNGLFWYQQHAGEAPTFLSYNVLDGLEEKGRFSSFLSRSKGYSYLLLKELQMKDSASYLCAAHSGGYQKVTFGTGTKLQVIP Vbeta: EPEVTQTPSHQVTQMGQEVILRCVPISNHLYFYWYRQILGQKVEFLVSFYNNEISEKSEIFDDQFSVERPDGSNFTLKIRSTKLEDSAMYFCASSEDEQEYSYEQYFGPGTRLTVT",binding result,[2],recognises
"TCR901 (TCR, V domains shown) Valpha: QKEVEQDPGPLSVPEGAIVSLNCTYSNSAFQYFMWYRQYSRKGPELLMYTYSSGNKEDGRFTAQVDKSSKYISLFIRDSQPSDSATYLCAMTRGGGGNKLTFGTGTQLKVEL Vbeta: NAGVTQTPKFRVLKTGQSMTLLCAQDMNHEYMYWYRQDPGMGLRLIHYSVGEGTTAKGEVPDGYNVSRLKKQNFLLGLESAAPSQTSVYFCASSYGGPEQFFGPGTRLTVL",binding result,[3],recognises
"TCR1285 (TCR, V domains shown) Valpha: DAKTTQPPSMDCAEGRAANLPCNHSTISGNEYVYWYRQIHSQGPQYIIHGLKNNETNEMASLIITEDRKSSTLILPHATLRDTAVYYCIVRLAPYSGNTPLVFGKGTRLSVIA Vbeta: DAGVTQSPTHLIKTRGQQVTLRCSPKSGHDTVSWYQQALGQGPQFIFQYYEEEERQRGNFPDRFSGHQFPNYSSELNVNALLLGDSALYLCASISGFMGLMNTEAFFGQGTRLTVV",binding result,[4],recognises
"TCR1364 (TCR, V domains shown) Valpha: GQNIDQPTEMTATEGAIVQINCTYQTSGFNGLFWYQQHAGEAPTFLSYNVLDGLEEKGRFSSFLSRSKGYSYLLLKELQMKDSASYLCAVKGDYKLSFGAGTTVTVRA Vbeta: DTGVSQNPRHKITKRGQNVTFRCDPISEHNRLYWYRQTLGQGPEFLTYFQNEAQLEKSRLLSDRFSAERPKGSFSTLEIQRTEQGDSAMYLCASSDRSYNEQFFGPGTRLTVL",binding result,[5],recognises
"TCR1036 (TCR, V domains shown) Valpha: RKEVEQDPGPFNVPEGATVAFNCTYSNSASQSFFWYRQDCRKEPKLLMSVYSSGNEDGRFTAQLNRASQYISLLIRDSKLSDSATYLCVVNMYNQGGKLIFGQGTELSVKP Vbeta: NAGVTQTPKFQVLKTGQSMTLQCAQDMNHEYMSWYRQDPGMGLRLIHYSVGAGITDQGEVPNGYNVSRSTTEDFPLRLLSAAPSQTSVYFCASSYSGPNYEQYFGPGTRLTVT",binding result,[6],recognises
"TCR1312 (TCR, V domains shown) Valpha: QKEVEQNSGPLSVPEGAIASLNCTYSDRGSQSFFWYRQYSGKSPELIMFIYSNGDKEDGRFTAQLNKASQYVSLLIRDSQPSDSATYLCAVNRAGGSYIPTFGRGTSLIVHP Vbeta: DAGVIQSPRHEVTEMGQEVTLRCKPISGHDYLFWYRQTMMRGLELLIYFNNNVPIDDSGMPEDRFSAKMPNASFSTLKIQPSEPRDSAVYFCASSQGQGVLGMKKLFFGSGTQLSVL",binding result,[7],recognises
"TCR721 (TCR, V domains shown) Valpha: AQKVTQAQTEISVVEKEDVTLDCVYETRDTTYYLFWYKQPPSGELVFLIRRNSFDEQNEISGRYSWNFQKSTSSFNFTITASQVVDSAVYFCALSEATGFGNEKLTFGTGTRLTIIP Vbeta: DAGITQSPRHKVTETGTPVTLRCHQTENHRYMYWYRQDPGHGLRLIHYSYGVKDTDKGEVSDGYSVSRSKTEDFLLTLESATSSQTSVYFCAISDPRDSYEQYFGPGTRLTVT",binding result,[8],recognises
